This is an account of results in PMC9418005 (Nature Microbiology, 2022).

Assay [1] addresses Delta (B.1.617.2) variant spike trimer (SARS-CoV-2 Delta (B.1.617.2), 2 prolines (P986–P987) | residues 682–685 mutated to GSAS). As to the kind of experiment: cell-based or functional assay.
In assay [2] the target is D614G mutant spike trimer (SARS-CoV-2 2019-nCoV D614G, D614G | 2 prolines (P986–P987) | residues 682–685 mutated to GSAS). Briefly: cell-based or functional assay.
Assay [3] deals with Alpha (B.1.1.7) variant spike trimer (SARS-CoV-2 Alpha (B.1.1.7), 2 prolines (P986–P987) | residues 682–685 mutated to GSAS). Briefly: cell-based or functional assay.
For assay [4], the target named is Beta (B.1.351) variant spike trimer (SARS-CoV-2 Beta (B.1.351), 2 prolines (P986–P987) | residues 682–685 mutated to GSAS). As to the kind of experiment: cell-based or functional assay.
Assay [5] deals with Gamma (P.1) variant spike trimer (SARS-CoV-2 Gamma (P.1), 2 prolines (P986–P987) | residues 682–685 mutated to GSAS). Briefly: cell-based or functional assay.
Assay [6] concerns the target T1, original 2019-nCoV spike trimer (SARS-CoV-2 original 2019-nCoV …, UniProt P0DTC2, 2 prolines (P986–P987) | residues 682–685 mutated to GSAS). As to the kind of experiment: Luminex bead-based binding assay. The conditions noted are these: both partners purified.
Assay [7] addresses T1, original 2019-nCoV spike trimer. As to the kind of experiment: Luminex spike-ACE2 surrogate neutralization assay. The conditions noted are these: both partners purified.

B1: P2G3 LS human IgG1 monoclonal antibody (antibody, V domains shown)
VH: EVQLVESGGGLVQPGRSLRLSCAASGFRFDDYALHWVRQAPEKGLEWVSGISWNSNNIGYAESVKGRFTISRDTAKKSLYLQMNDLRAEDTALYYCVKDRHYDSSGYFVNGFDIWGQGTLVTVSA
VL: DIQLTQSPSFLSASVGDRVTVTCRASQGISSYVAWYQQKAGKAPTLLIYTASTLQSGVPSRFSGSGSGTEFTLTISSLQPEDFATYYCQQLHSYPVTFGQGTRLDIE
B1: the “IC80, live SARS-CoV-2 cytopathic effect neutralization assay, Vero E6 cells” value in assay [1] was 0.024 µg/mL; in assay [2], 0.028 µg/mL; in assay [3], 0.01 µg/mL; in assay [4] it was 0.017 µg/mL; in assay [5], 0.021 µg/mL. In assay [6], the binding result was “binds”.

B2: P5C3 LS monoclonal antibody (antibody, V domains shown)
VH: QMQLVQSGPEVKKPGTSVKVSCKASGFTFTSSAVQWVRQARGQRLEWIGWIVVGSGNTDYAQQFQERVTITRDMSTSTAYMELSSLGSEDTAVYYCAAPNCSGGSCYDGFDLWGQGTMVTVSS
VL: EIVLTQSPGTLSLSPGERATLSCRGSQSVRSSYLGWYQQKPGQAPRLLIYGASSRATGIPDRFSGSGSGTDFTLTISRLEPEDFAVYYCQQYGSSPWTFGQGTKVEIK
For the molecule B2, the binding result in assay [7] was “binds”.
